Biological target: T1, human CD5 cell differentiation marker (human, UniProt P06127 25-495)
T1 sequence: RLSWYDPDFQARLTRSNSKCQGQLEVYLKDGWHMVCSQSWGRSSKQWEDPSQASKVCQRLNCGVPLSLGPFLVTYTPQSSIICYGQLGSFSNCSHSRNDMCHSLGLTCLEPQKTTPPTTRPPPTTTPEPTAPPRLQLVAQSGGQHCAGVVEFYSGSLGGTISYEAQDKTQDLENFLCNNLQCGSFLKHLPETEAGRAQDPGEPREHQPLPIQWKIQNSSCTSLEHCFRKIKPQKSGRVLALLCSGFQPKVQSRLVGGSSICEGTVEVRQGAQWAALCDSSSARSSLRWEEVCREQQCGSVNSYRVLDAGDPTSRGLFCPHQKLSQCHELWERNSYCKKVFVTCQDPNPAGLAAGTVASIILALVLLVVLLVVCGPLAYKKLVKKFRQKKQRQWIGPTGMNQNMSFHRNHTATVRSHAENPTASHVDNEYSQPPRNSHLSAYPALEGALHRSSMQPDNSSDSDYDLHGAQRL
Assay: cell-based or functional assay

B1: he3Fab-rGelA50(C44) (other)
heavy: EIQLVQSGGGLVKPGGSVRISCAASGYTFTNYGMNWVRQAPGKGLEWMGWINTHTGEPTYADSFKGRFTFSLDDSKNTAYLQINSLRAEDTAVYFCTRRGYDWYFDVWGQGTTVTVSS
light: DIQMTQSPSSLSASVGDRVTITCRASQDINSYLSWFQQKPGKAPKTLIYRANRLESGVPSRFSGSGSGTDYTLTISSLQYEDFGIYYCQQYDESPWTFGGGTKLEIK
chain: GLDTVSFSTKGATYITYVNFLNELRVKLKPEGNSHGIPLLRKKCDDPGKAFVLVALSNDNGQLAEIAIDVTSVYVVGYQVRNRSYFFKDAPDAAYEGLFKNTIKTRLHFGGSYPSLEGEKAYRETTDLGIEPLRIGIKKLDENAIDNYKPTEIASSLLVVIQMVSEAARFTFIENQIRNNFQQRIRPANNTISLENKWGKLSFQIRTSGANGMFSEAVELERANGKKYYVTAVDQVKPKIALLKFVDKDPK
  IC50 (pMT), whole cell cytotoxicity, CEM Cells: 173 pMT
